Where only a bound is given, the exact number is not on record here.

In assay [1] the target is DNAX Leukocyte Associated Immunoglobulin-like Receptor (DLAIR-1), the DX26 antigen, product of the YE01 gene (human) (UniProt Q6GTX8). Briefly: flow cytometry on Peer T cell tumor cells (DLAIR-positive), PE goat-anti-mouse-IgG second step. (In general: Flow cytometry measures light scatter and fluorescence of single cells or particles in a stream.)
The target is the same in assay [2]. Briefly: flow cytometry on Molt4 T cell tumor cells (DLAIR-positive), PE goat-anti-mouse-IgG second step.
Assay [3] shares this target. Briefly: flow cytometry on U937 myeloid tumor cells (DLAIR-positive), PE goat-anti-mouse-IgG second step.
Assay [4] shares this target. Put plainly: flow cytometry on HL60 promyeloid tumor cells (DLAIR-positive), PE goat-anti-mouse-IgG second step.
The target is the same in assay [5]. Briefly: flow cytometry on Jurkat T cell tumor cells (DLAIR-positive), PE goat-anti-mouse-IgG second step.
The target is the same in assay [6]. Briefly: flow cytometry on CEM T cell tumor cells (DLAIR-positive), PE goat-anti-mouse-IgG second step.
For assay [7] the target is unchanged. Briefly: flow cytometry on HUT78 T cell tumor cells, PE goat-anti-mouse-IgG second step.
For assay [8] the target is unchanged. Briefly: flow cytometry on HL60 promyeloid tumor cells, PE goat-anti-mouse-IgG second step.
The target is the same in assay [9]. Briefly: flow cytometry on U937 myeloid tumor cells, PE goat-anti-mouse-IgG second step.
The target is the same in assay [10]. Briefly: flow cytometry on CEM T cell tumor cells, PE goat-anti-mouse-IgG second step.
For assay [11] the target is unchanged. Put plainly: flow cytometry on Peer T cell tumor cells, PE goat-anti-mouse-IgG second step.
For assay [12] the target is unchanged. Briefly: flow cytometry on Jurkat T cell tumor cells, PE goat-anti-mouse-IgG second step.
The target is the same in assay [13]. Put plainly: flow cytometry on Molt4 T cell tumor cells, PE goat-anti-mouse-IgG second step.

Take control IgG1 (antibody): the mean fluorescence intensity (mean fluorescence intensity) in [1], in assay [2], in [3], in assay [4], in assay [5] and in assay [6] was less than 5 in each case.

DX26 monoclonal antibody: the mean fluorescence intensity (mean fluorescence intensity) in assay [7] was 25.8; in assay [8], 46.9; in [9], 49.5; in [10] it was 92.7; in assay [11], 29.1; in assay [12], 47.1. The mean fluorescence intensity (mean fluorescence intensity) in assay [13] is 30.7.

These data come from patent EP2161338A1.
